From patent US20200140532A1 (Ablynx, published 2020) come the findings set out here.

B1: C0101PMP113A01 (VHH)
VHH: EVQLVESGGGLVQPGGSLRLSCSASGFTFSGSWMFWVRQAPGKDYEWVASINSSGGRTYYDDSVKGRFTISRDSAKNTLYLEMNNLKPEDTALYFCARSPRVGSWGQGTQVTVSS
notes: Tested as E. coli periplasmic extract; not shown: FLAG3 and His6 tags (phagemid pAX212)
B2: C0101PMP608A05 (VHH)
VHH: DVQLVESGGGLVQPGGSLRLSCAASGRTFSTYTMGWFRQAPGKEREFVAAISWSGGTTYYADSVKGRFTISRDNSKNTVYLQMNSLRPEDTAVYYCAARPRYYYYSLYSYDYWGQGTLVTVSS
notes: as for B1
B3: C0101PMP604G01 (VHH)
VHH: DVQLVESGGGLVQPGGSLRLSCAASGRTFSSYTMGWFRQAPGKEREFVAAISWSGRTTYYADSVKGRFTISRDNSKNTVYLQMNSLRPEDTAVYYCAAYRRVRYTNLEVWDYWGQGTLVTVSS
notes: as for B1
B4: C0101PMP601D02 (VHH)
VHH: DVQLVESGGGLVQPGGSLRLSCAASGPTFSRYAMGWFRQAPGKEREFVAAITWSSGGRTYYADSVKGRFTISRDNSKNTVYLQMNSLRPEDTAVYYCAAARIPVRTYTSEWNYWGQGTLVTVSS
notes: as for B1
B5: C0101PMP117G09 (VHH)
VHH: EVQLVESGGGSALPGGSLRLSCAASGITFSSRYMRWYRQAPGRQRELVAAISSGGRTDYVDSVRGRFTLSINNAKNTVYLQMNDLKPEDTAVYYCYRPRMYVDGTYEKELWGQGTLVTVSS
notes: as for B1
B6: C0101PMP606A07 (VHH)
VHH: DVQLVESGGGLVQPGGSLRLSCVASGRTFSIYGMGWFRQAPGKEREFVAAINGGSRTYYADSVKGRFTISRDNSKNTVYLQMNSLRPEDTAVYYCAADRSGYGTSLDWWYDYWGQGTLVTVSS
notes: as for B1
B7: C0101PMP604B05 (VHH)
VHH: DVQLVESGGGLVQPGGSLRLSCVASGRTFSIYTMAWFRQAPGKEREFVAAISWSSGRTYYADSVKGRFTISRDNSKNTVYLQMNSLRPEDTAVYYCTAYTGPRSGYDYWGQGTLVTVSS
notes: as for B1
B8: C0101PMP115B08 (VHH)
VHH: KVQLVESGGGLVQPGGSLRLSCAASGFTFSMYAMKWVRQAPGKGLEWVSGINSSGGRTNYAGSVKGRFTISRDNAKNTLYLQMNSLKPEDTAVYYCATDFLGGRNSRGQGTQVTVSS
notes: as for B1
B9: C0101PMP112A03 (VHH)
VHH: EVQLVESGGGLVQPGGSLRLSCAASGSIFSNRFMYWYRQAPGKQRELVASITLSGSTNYADSVKGRFTISRDNAKNTVYLQMNSLKPEDTAVYYCNTFLQNSFYWGQGTQVTVSS
notes: as for B1
B10: C0101PMP601E08 (VHH)
VHH: DVQLVESGGGLVQPGGSLRLSCTASGRTFSSYAVGWFRQAPGKEREFVAAISRSGRSTYYADSVKGRFTISRDNSKNTVYLQMNSLRPEDTAVYYCAAGLSYYSPHAYYDYWGQGTLVTVSS
notes: as for B1
B11: C0101PMP112A01 (VHH)
VHH: EVQLVESGGGLVQTGGSLRLSCVASGRAFSNYIMGWFRQAPGKERDFVAAINWNGVTTHYTDSVKGRFTISRDNAKSTSYLQMDSLKPDDTAVYFCAARGTVYSRTYGVSEEGYMYWGQGTQVTVSS
notes: as for B1
B12: C0101PMP609C09 (VHH)
VHH: DVQLVESGGGLVQPGGSLRLSCAASGTIFSINVMGWYRQAPGKEREFVAAITTGGRTNYADSVKGRFTISRDNSKNTVYLQMNSLRPEDTAVYYCNAEVTTGWVGYSWYDYWGQGTMVTVSS
notes: as for B1
B13: C0101PMP117D05 (VHH)
VHH: KVQLVESGGGLVQAGGSLRLSCAASRRTFNMMGWFRQAPGKEREFVAYITWNGGDTRYAESVKGRFTVSRDDVKNTMALQMNRLDPLDTAVYYCGVRIHGSNWSTKADDYDNWGQGTQVTVSS
notes: as for B1
B14: C0101PMP604G09 (VHH)
VHH: DVQLVESGGGLVQPGGSLRLSCVASGRTFSSYAMGWFRQAPGKEREFVAAITWSSATTYYADSVKGRFTISRDNSKNTVYLQMNSLRPEDTAVYYCAAARIPVGRRSENWDYWGQGTLVTVSS
notes: as for B1
B15: C0101PMP604F02 (VHH)
VHH: DVQLVESGGGLVQPGGSLRLSCAASGRTFSSYTMGWFRQAPGKEREFVAAISWSGGRTYYADSVKGRFTISRDNSKNTVYLQMNSLRPEDTAVYYCAAYRRRRASSNRGLWDYWGQGTLVTVSS
notes: as for B1
B16: C0101PMP114F08 (VHH)
VHH: EVQLVESGGGLVQAGGSLRLSCAASGSTFIINVVRWYRRTPGKQRELVATISSGGNANYVDSVRGRFSISRDGAKNAVDLQMNGLKPEDTAVYYCNVPTTHYGGVYYGPYWGQGTQVTVSS
notes: as for B1
B17: C0101PMP601E09 (VHH)
VHH: DVQLVESGGGLVQPGGSLRLSCAASGLTFSTYAMGWFRQAPGKEREFVAAISWSGSRTYYADSVKGRFTISRDNSKNTVYLQMNSLRPEDTAVYYCAAYRRPRYSPTGTWDYWGQGTLVTVSS
notes: as for B1

The first experiment has as its target T1, recombinant dog Aggrecan G1-IGD-G2 (dog, UniProt Q28343 20-693, limits assumed).
T1 construct: also called Dog G1-IGD-G2
The experiment is described as follows: periplasmic extract ELISA. (In an ELISA, binding on a coated surface is turned into a signal by an enzyme label.)
Take B1: the “OD 450 nm” value was 2.51 OD 450 nm.
On the same count and under the same terms, with B2 the figure was 0.86 OD 450 nm; with B3, 1.55 OD 450 nm; with B4, 2.58 OD 450 nm.
Same read-out and setting: the value for B5 was 1.68 OD 450 nm; that for B6 was 1.47 OD 450 nm; that for B7 was 1.27 OD 450 nm.
For the molecule B8, the “OD 450 nm” value worked out at 1.8 OD 450 nm.
On the same count and under the same terms, the value for B9 was 1.47 OD 450 nm.
Consider B10, for which the “OD 450 nm” value was 0.57 OD 450 nm.
As to B11, the “OD 450 nm” value is 1.57 OD 450 nm.
Consider B12, for which the “OD 450 nm” value amounted to 1.52 OD 450 nm.
On to B13, for which the “OD 450 nm” value came to 1.53 OD 450 nm.
Same read-out and setting: the value for B14 was 1.16 OD 450 nm; that for B15 was 1.04 OD 450 nm.
On the same count and under the same terms, the value for B16 was 1.9 OD 450 nm.
Take B17: the “OD 450 nm” value is 2.57 OD 450 nm.

A further experiment has as its target T2, recombinant bovine Aggrecan G1-IGD-G2 (bovine, UniProt P13608 20-684, limits assumed).
T2 construct: also called Bov G1-IGD-G2; Boy G1-IGD-G2
The experiment is described as follows: periplasmic extract ELISA.
As for B1, the “OD 450 nm” value stood at 2.54 OD 450 nm.
The same measure, in the same setting: with B2 the figure was 2.27 OD 450 nm; with B3, 0.68 OD 450 nm; with B5, 0.76 OD 450 nm.
With B7, the “OD 450 nm” value was 1.63 OD 450 nm.
On the same count and under the same terms, with B8 the figure was 0.84 OD 450 nm; with B9, 0.73 OD 450 nm.
B10: the “OD 450 nm” value was found to be 1.68 OD 450 nm.
Same read-out and setting: the value for B11 was 2.41 OD 450 nm.
Same read-out and setting: the value for B12 was 1.08 OD 450 nm.
Still for that read-out and setting: the value for B13 was 1.92 OD 450 nm; that for B14 was 1.21 OD 450 nm; that for B15 was 0.82 OD 450 nm.
For B16, the “OD 450 nm” value was 1.18 OD 450 nm.

The target in another experiment is T3, recombinant rat Aggrecan G1-IGD-G2 (rat, UniProt P07897 20-684, limits assumed).
T3 construct: also called Rat G1-IGD-G2
The experiment is described as follows: periplasmic extract ELISA.
As for B1, the “OD 450 nm” value came to 2.53 OD 450 nm.
Regarding B2, the “OD 450 nm” value is 2.39 OD 450 nm.
Take B3: the “OD 450 nm” value turned out to be 0.6 OD 450 nm.
As for B4, the “OD 450 nm” value worked out at 2.59 OD 450 nm.
Still for that read-out and setting: the value for B5 was 2.29 OD 450 nm; that for B6 was 2.31 OD 450 nm.
As for B7, the “OD 450 nm” value came to 1.98 OD 450 nm.
Same read-out and setting: the value for B8 was 1.85 OD 450 nm; that for B9 was 1.69 OD 450 nm.
Regarding B10, the “OD 450 nm” value turned out to be 2.49 OD 450 nm.
For B11, the “OD 450 nm” value was 2.03 OD 450 nm.
Same read-out and setting: the value for B12 was 0.97 OD 450 nm; that for B13 was 2.35 OD 450 nm; that for B14 was 1.4 OD 450 nm.
As to B15, the “OD 450 nm” value came to 0.78 OD 450 nm.
The same measure, in the same setting: with B16 the figure was 2.05 OD 450 nm.
For the molecule B17, the “OD 450 nm” value worked out at 2.61 OD 450 nm.

The target of the next experiment is T4, recombinant human Aggrecan G1-IGD-G2 (human, UniProt P16112 20-676).
T4 construct: Only the G1-IGD-G2 region was used (R&D Systems 1220-PG is named for the immunogen); also called Hu G1-IGD-G2
The experiment is described as follows: periplasmic extract ELISA.
Regarding B1, the “OD 450 nm” value is 2.56 OD 450 nm.
On to B2, for which the “OD 450 nm” value was 2.33 OD 450 nm.
Consider B3, for which the “OD 450 nm” value came out at 2.27 OD 450 nm.
B4: the “OD 450 nm” value amounted to 2.58 OD 450 nm.
Take B5: the “OD 450 nm” value is 2.21 OD 450 nm.
In the case of B6, the “OD 450 nm” value was 0.71 OD 450 nm.
Regarding B7, the “OD 450 nm” value is 2.48 OD 450 nm.
Still for that read-out and setting: with B8 the figure was 1.65 OD 450 nm.
Still for that read-out and setting: with B9 the figure was 2.51 OD 450 nm; with B10, 2.28 OD 450 nm; with B11, 2.5 OD 450 nm.
The same measure, in the same setting: the value for B12 was 2.1 OD 450 nm.
On to B13, for which the “OD 450 nm” value is 2.25 OD 450 nm.
The same measure, in the same setting: with B14 the figure was 2.41 OD 450 nm; with B15, 2.41 OD 450 nm; with B16, 2.38 OD 450 nm.
